Measurements taken from patent US20250277030A1 (Zymeworks, published 2025).

Legend:
[1] = target: T1, human sodium-dependent phosphate transporter 2B (NaPi2b) (human, UniProt O95436 1-690); test: flow cytometry, HEK293-6e cells transfected with human NaPi2b; apparent Kd
T1 construct: UniProt ID is given as 095436 [sic]; also called hNaPi2b; Hu NaPi2b
T1 sequence: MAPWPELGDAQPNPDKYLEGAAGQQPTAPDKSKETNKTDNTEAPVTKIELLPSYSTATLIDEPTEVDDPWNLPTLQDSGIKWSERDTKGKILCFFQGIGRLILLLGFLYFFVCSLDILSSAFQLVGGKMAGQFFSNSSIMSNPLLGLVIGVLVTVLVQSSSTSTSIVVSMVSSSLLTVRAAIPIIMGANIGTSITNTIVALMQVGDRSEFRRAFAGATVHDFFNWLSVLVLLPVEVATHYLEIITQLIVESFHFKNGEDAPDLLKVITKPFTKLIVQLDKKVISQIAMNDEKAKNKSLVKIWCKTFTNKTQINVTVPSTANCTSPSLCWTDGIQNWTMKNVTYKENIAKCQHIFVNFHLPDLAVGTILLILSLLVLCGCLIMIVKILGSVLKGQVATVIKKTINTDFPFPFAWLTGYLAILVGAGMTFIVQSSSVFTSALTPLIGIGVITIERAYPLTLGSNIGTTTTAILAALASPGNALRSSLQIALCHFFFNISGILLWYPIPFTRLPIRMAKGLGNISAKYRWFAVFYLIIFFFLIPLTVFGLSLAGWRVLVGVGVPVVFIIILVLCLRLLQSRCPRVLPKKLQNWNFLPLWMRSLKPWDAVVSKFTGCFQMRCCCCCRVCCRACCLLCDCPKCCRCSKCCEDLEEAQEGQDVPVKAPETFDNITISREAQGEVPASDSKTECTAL
Procedure: (§1) The binding cross-reactivity of humanized antibody variant v29456 to human, cynomolgus and mouse NaPi2b was assessed by flow cytometry using HEK293-6e transfected cells.
(§2) Briefly, HEK293-6e cells were transfected for ˜24 hours to transiently express human NaPi2b, cynomolgus or mouse NaPi2b, at 1 μg of DNA per 1 million cells. Following transfection, 50,000 cells per well were seeded in V-bottom 96-well plates and incubated with 200 nM of primary antibody for 18-24 hours at 4° C. to prevent internalization. Post-incubation, cells were washed and stained with anti-Human IgG Fc AF647 conjugate (Jackson Immuno Research Labs, West Grove, PA, Cat. No. 109-605-098, Lot. No. 124868) at 4° C. for 1 hour. Following staining and washing, fluorescence was detected by flow cytometry on BD LSRFortessa™ Cell Analyzer (BD Biosciences, Franklin Lake, NJ) with 10,000 minimum events collected per well. The AF647/APC-A GeoMean (fluorescence signal geometric mean, proportional to anti-Human AF647 binding) was calculated for the live singlet cell population for each primary antibody using FlowJo™ v8 software (BD Biosciences, Franklin Lake, NJ). The Bmax and Kd of each primary antibody were calculated using GraphPad Prism Version 9 (GraphPad Software, San Diego, CA)

[2] = target: T1, human sodium-dependent phosphate …; test: flow cytometry, HCC-78 cells (endogenous NaPi2b); apparent Kd
Procedure: as §2
The ability of ADCs to bind to cells expressing NaPi2b was assessed. […] Binding to endogenous high NaPi2b-expressing cell lines IGROV-1 and HCC-78 was assessed by flow cytometry according to methods described in Example 5.

[3] = target: T1, human sodium-dependent phosphate …; test: flow cytometry, IGROV-1 cells (endogenous NaPi2b), 24 h at 4 °C
How it was run: (§3)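 IGROV-1 cells were incubated with test antibody for 24 hours at 4° C to prevent internalization, then stained with anti-human IgG Fc AF647 for 30 min at 4° C. AF647 geometric mean fluorescence of live cells was measured by flow cytometry and plotted per antibody.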

[4] = target: T2, mouse NaPi2b (mouse, UniProt Q9DBP0 1-697); test: flow cytometry, HEK293-6e cells transfected with mouse NaPi2b; apparent Kd
T2 construct: Transiently expressed on HEK293-6e cells; also called Ms NaPi2b
T2 sequence: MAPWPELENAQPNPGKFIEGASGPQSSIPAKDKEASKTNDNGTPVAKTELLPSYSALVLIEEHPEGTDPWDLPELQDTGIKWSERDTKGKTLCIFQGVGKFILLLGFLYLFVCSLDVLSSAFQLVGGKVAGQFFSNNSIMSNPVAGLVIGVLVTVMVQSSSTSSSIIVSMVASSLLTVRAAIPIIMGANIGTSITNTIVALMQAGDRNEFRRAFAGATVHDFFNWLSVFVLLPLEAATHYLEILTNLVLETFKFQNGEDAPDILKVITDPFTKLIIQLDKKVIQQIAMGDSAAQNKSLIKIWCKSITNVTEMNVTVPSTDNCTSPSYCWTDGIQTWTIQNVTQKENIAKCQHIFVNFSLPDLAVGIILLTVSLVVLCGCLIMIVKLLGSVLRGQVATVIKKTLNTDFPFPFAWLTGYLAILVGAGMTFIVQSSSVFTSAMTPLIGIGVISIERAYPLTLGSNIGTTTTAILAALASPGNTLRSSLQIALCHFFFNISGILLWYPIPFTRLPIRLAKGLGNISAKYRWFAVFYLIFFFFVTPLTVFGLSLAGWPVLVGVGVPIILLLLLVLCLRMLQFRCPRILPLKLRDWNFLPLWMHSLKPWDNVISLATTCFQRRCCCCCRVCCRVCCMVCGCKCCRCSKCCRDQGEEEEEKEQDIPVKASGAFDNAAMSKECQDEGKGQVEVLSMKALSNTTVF
Procedure: as §1, §2

[5] = target: T1, human sodium-dependent phosphate …; test: flow cytometry, IGROV-1 cells (endogenous NaPi2b), 24 h at 4 °C; apparent Kd
How it was run: as §3

B1: v29456 humanized anti-NaPi2b antibody (H1L2) (antibody, human IgG1, kappa)
heavy: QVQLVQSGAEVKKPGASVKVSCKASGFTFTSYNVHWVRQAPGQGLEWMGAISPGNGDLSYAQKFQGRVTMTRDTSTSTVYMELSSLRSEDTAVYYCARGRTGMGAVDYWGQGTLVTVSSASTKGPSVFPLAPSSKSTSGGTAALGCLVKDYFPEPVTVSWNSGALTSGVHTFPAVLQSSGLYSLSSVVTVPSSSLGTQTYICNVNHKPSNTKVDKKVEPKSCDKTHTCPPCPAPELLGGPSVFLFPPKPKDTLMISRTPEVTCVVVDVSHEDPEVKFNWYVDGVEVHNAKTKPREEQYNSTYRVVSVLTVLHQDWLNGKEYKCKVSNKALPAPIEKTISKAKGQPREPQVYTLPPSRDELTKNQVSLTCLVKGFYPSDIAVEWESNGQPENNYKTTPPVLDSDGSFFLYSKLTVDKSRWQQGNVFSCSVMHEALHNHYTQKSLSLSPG
light: DVQMTQSPSSLSASVGDRVTITCRASQDVYSYLNWYQQKPGKAVKLLIYYTSRLQSGVPSRFSGSGSGTDYTLTISSLQPEDFATYYCQQYNIFPWTFGQGTKLEIKRTVAAPSVFIFPPSDEQLKSGTASVVCLLNNFYPREAKVQWKVDNALQSGNSQESVTEQDSKDSTYSLSSTLTLSKADYEKHKVYACEVTHQGLSSPVTKSFNRGEC
With B1 the Kd [1] was 5.2 nM, the Kd [2] was 2.27 nM and the “Bmax (MFI)” value [3] was 40900 MFI. It also gave a Kd [4] of 10.6 nM and a Kd [5] of 1.1 nM.
